Experimental data from US20200371101A1 (Regeneron, published 2020).
Where two headings read alike, the source gives them in different places. Bridge positions count the residues as written; N and C are the ends. Square brackets hold non-standard residues; d marks the D form. Primed or numbered codes have the meaning given here. Ends that are not written are not given here. * marks the point of attachment. Biotin = O=C1N[C@H]2[C@H](CS[C@H]2CCCCC(=O)*)N1; PEG6′ = PEG linker with 6 ethylene glycol units; PEG8′ = PEG linker with 8 ethylene glycol units; Trp(1-Me) = Cn1cc(C[C@H](N)C(=O)O)c2ccccc21; Phe(4-F) = N[C@@H](Cc1ccc(F)cc1)C(=O)O; Me‑Phe = methyl phenylalanine; PEG3′ = not defined here; Ph‑Tyr = phenyl tyrosine; Pra = C#CC[C@H](N)C(=O)O; Az4 = not defined here; Inh = not defined here; Me‑Val = methyl valine

Columns and labels:
[1] = molecular target: T1, His-tagged IDO1 human recombinant protein (71182, BPS Biosciences) (human, UniProt P14902 2-403); test: cell-based or functional assay
[2] = molecular target: T1, His-tagged IDO1 human recombinant …; test: binding affinity, assay not named
[3] = molecular target: T1, His-tagged IDO1 human recombinant …; test: ELISA: biotinylated peptide on NeutrAvidin plate, 6xHis-tagged human IDO1 titrated
Description: The plate was aspirated and then washed with Wash Buffer (0.05% (v/v) Tween-20 in PBS, 6×). His-tagged IDO1 human recombinant protein (71182, BPS Biosciences) was serially diluted in Wash Buffer (from 200 to 0 nM) and incubated in the designated microwells for 1 h at room temperature. […] (ab49746, Abcam) was prepared at 1:10,000 dilution and added to the microwells for 1 h at room temperature. The plate was aspirated and washed with Wash Buffer (5×). AttoPhos® AP Fluorescent Substrate System (S1000, Promega) was employed to develop the microwells. Using an excitation wavelength of 430 nm, fluorescent emission at 535 nm was recorded by Beckman Coulter DTX880 photometer.

[4] = molecular target: T1, His-tagged IDO1 human recombinant …; test: ELISA: biotin-PEG3 macrocycle on NeutrAvidin plate, His-tagged human IDO1 titrated, AP-conjugated anti-6XHis antibody, fluorescence
[5] = molecular target: T1, His-tagged IDO1 human recombinant …; test: cell-based or functional assay; remark: listed apart in the source
[6] = molecular target: T1, His-tagged IDO1 human recombinant …; test: cell-based or functional assay; remark: listed apart in the source
[7] = molecular target: IDO1 in HeLa cells stimulated with IFNγ (UniProt P14902 1-403, limits assumed); test: cell-based or functional assay
Sequence of IDO1 in HeLa cells stimulated with IFNγ (P14902 whole entry): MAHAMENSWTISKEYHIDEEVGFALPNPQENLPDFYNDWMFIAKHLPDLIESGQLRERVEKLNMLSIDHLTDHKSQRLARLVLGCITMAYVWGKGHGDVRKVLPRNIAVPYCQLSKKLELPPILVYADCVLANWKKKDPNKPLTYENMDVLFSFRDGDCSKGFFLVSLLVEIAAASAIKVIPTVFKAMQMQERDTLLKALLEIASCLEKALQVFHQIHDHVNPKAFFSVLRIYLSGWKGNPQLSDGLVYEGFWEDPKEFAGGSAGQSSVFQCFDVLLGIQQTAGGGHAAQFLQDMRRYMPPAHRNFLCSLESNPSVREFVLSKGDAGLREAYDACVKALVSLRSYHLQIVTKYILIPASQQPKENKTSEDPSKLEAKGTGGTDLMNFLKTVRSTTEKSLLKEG

T1 sequence (P14902 2-403 limits assumed): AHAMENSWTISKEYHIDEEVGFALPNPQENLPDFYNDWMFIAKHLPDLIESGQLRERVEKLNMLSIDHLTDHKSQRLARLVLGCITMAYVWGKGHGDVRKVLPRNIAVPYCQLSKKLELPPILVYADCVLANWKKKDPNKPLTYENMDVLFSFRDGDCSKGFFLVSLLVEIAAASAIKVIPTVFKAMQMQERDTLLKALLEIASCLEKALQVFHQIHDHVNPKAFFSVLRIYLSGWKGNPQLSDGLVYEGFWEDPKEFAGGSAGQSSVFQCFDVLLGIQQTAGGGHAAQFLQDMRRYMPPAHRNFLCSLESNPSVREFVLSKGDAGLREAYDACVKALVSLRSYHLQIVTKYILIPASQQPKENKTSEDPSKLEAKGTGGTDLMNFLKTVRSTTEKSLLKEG

B1: Inh-PEG4-wyry (other)
peptide: [Pra][dW][dY][dR][dY]-Az4
modifications: triazole N-C; numbers in words are those of the source; reading uncertain; also: small molecule Inh joined via PEG4 linker, attachment point not given here
In the case of B1, the “IC50, IDO1 inhibition assay” value [1] is reported as 871 nM.

B2: w(Ph-Tyr)(Me-Val)G(Me-Phe) (peptide)
peptide: [dW][Ph‑Tyr][Me‑Val]G[Me‑Phe]
modifications: not fully specified; printed as w(Ph-Tyr)(Me-Val)G(Me-Phe)
notes: Modified version of wyvay
For B2, the EC50 [2] was 18 nM.

B3: (F-Phe)n(Me-Trp)(Me-Trp)w macrocycle (peptide)
peptide: [Pra][Phe(4-F)][dN][Trp(1-Me)][Trp(1-Me)][dW]-Az4
modifications: triazole N-C; reading uncertain; also: biotinylated for ELISA, site not given here, printed as (F-Phe)n(Me-Trp)(Me-Trp)w
With B3 the EC50 [3] was 100 nM.

B4: Inh-PEG8-wyry (other)
peptide: {Inh-PEG8′}-[Pra][dW][dY][dR][dY]-Az4
modifications: triazole N-C; numbers in words are those of the source; reading uncertain; also: Inh joined through PEG8 linker, printed as Inh-PEG8-wyry
In the case of B4, the “IC50, IDO1 inhibition assay” value [1] is reported as 3740 nM.

B5: ww(F-Phe) (peptide)
chain: {Biotin-PEG3′}-[dW]-[dW]-[Phe(4-F)]
modifications: triazole (positions not given here); also: triazole-cyclised
B5 was tested, and the EC50 [4] was 96 nM.

B6: Deprotected-Inh-Gly2-wyvay (other)
peptide: Inh-GG[dW][dY][dV][dA][dY]
modifications: triazole (positions not given here); not fully specified (residue 2, C-terminus); printed as Deprotected-Inh-Gly2-wyvay; reading uncertain; also: IDO1 inhibitor Inh on the Gly2 linker, ring closed by triazole between flanking Pra and Az4
With B6 the “IC50, IDO1 inhibition assay” value [5] was 1010 nM.

B7: Inh-PEG6-wyry (other)
peptide: {Inh-PEG6′}-[Pra][dW][dY][dR][dY]-Az4
modifications: triazole N-C; numbers in words are those of the source; reading uncertain; also: Inh joined through PEG6 linker, printed as Inh-PEG6-wyry
B7 was tested, and the “IC50, IDO1 inhibition assay” value [1] was 338 nM, the “Inhibition Recombinant IDO1 IC50” value [6] was 338 nM and the “% inhibition at 8 µM, HeLa” value [7] was 47.8%.
